Measured values from patent publication US6979727B2, “Recombinant conglutinin and producing method thereof” (Fuso Pharmaceutical Industries, Ltd., priority 1995, dated 2005).

Legend:
Recombinant Conglutinin = target: T1, Recombinant Conglutinin (Bos taurus, UniProt P23805); test: Sugar inhibition of binding to mannan-coated plates (ELISA)
T1 sequence (P23805 211-371): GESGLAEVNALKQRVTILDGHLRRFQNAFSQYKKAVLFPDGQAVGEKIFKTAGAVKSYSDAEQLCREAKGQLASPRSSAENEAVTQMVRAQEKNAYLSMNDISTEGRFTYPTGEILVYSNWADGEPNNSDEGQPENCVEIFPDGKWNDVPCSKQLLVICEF

[1] = target: iC3b on sheep erythrocyte cells (horse (from fresh horse serum)); test: cell-based or functional assay
Influenza A viruses [2] = type: cell-based, Influenza A virus
Hemagglutinin (HA) = conditions: Table 4, Western blotting
Influenza A viruses [3] = test: HI activity of collectins (method of Example 5); type: cell-based, Influenza A virus; conditions: Table 4
Influenza A viruses [4] = test: Neutralization activity of collectins (method of Example 6); type: cell-based, Influenza A virus
A/Adachi/1/57(H2N2) = type: cell-based, Influenza A virus
A/Suita/1/89(H1N1) = test: Hemagglutination Inhibition (HI) with chick's erythrocytes; type: cell-based, Influenza A virus
A/Ibaraki/1/90(H3N2) [5] = test: Neutralization activities in MDCK cells, PAP staining; type: cell-based, Influenza A virus
[6] = tested on: sheep erythrocyte cells with iC3b; test: Conglutination activities, microtiter plate assay system; type: cell-based; conditions: 1% sheep erythrocyte cells with iC3b, 37° C., veronal buffer
Description: Conglutination activities of the recombinant conglutinin and the native conglutinin were evaluated by Microtiter plate assay system. Sheep erythrocyte cells with iC3b were prepared according to the method of Wakamiya et al., (Biochem. Biophys. Res. Comm., Vol. 187, pp. 1270-1278, 1992). Namely, 1% sheep erythrocyte cells with iC3b were prepared by priming with a mixture of ten-fold diluted fresh horse serum and equivalent amount of anti-Forssmann antibody, and incubated at 37° C. for ten minutes.
50 μl of 1% sheep erythrocyte cells with iC3b and 50 μl of the recombinant conglutinin or 50 μl of the native conglutinin was added to the raw veronal buffer or the veronal buffer containing 30 mM N-acetylglucosamine. Then, they were incubated at 37° C. and the conglutination activities thereon were detected. The lowest concentration of the proteins to cause agglutination is regarded as titer of conglutination, then the results are shown in FIG. 8. In FIG. 8, Lane A is the native conglutinin, Lane B is the recombinant conglutinin and Lane C is the recombinant conglutinin containing 30 mM N-acetylglucosamine. Titer of conglutination on the native conglutinin was 0.16 μg/ml, while that of the recombinant conglutinin was 1.3-2.5 μg/ml.

A/Ibaraki/1/90(H3N2) [7] = test: Hemagglutination Inhibition (HI) with chick's erythrocytes; type: cell-based, Influenza A virus

C[C@@H](O)[C@H](O)[C@H](O)[C@@H](O)C=O [D-Fucose]
IC50 (Recombinant Conglutinin): 55.3 mM

O=C[C@@H](O)[C@@H](O)[C@H](O)[C@H](O)CO [D-Mannose]
IC50 (Recombinant Conglutinin): 12.3 mM

O=C[C@H](O)[C@@H](O)[C@@H](O)[C@H](O)CO [Galactose]
IC50 (Recombinant Conglutinin): 46.8 mM

C[C@H](O)[C@@H](O)[C@@H](O)[C@H](O)C=O [L-Fucose]
IC50 (Recombinant Conglutinin): 37.8 mM

OC[C@H]1O[C@@H](O[C@H]2[C@H](O)[C@@H](O)C(O)O[C@@H]2CO)[C@H](O)[C@@H](O)[C@H]1O (stereo partly drawn) [Lactose]
IC50 (Recombinant Conglutinin): > 100 mM

OC[C@H]1O[C@H](O[C@H]2[C@H](O)[C@@H](O)[C@H](O)O[C@@H]2CO)[C@H](O)[C@@H](O)[C@@H]1O [Maltose]
IC50 (Recombinant Conglutinin): 25.8 mM

CC(=O)N[C@H]1C(O)O[C@H](CO)[C@@H](O)[C@@H]1O (stereo partly drawn) [N-Acetyl-D-Glucosamine]
IC50 (Recombinant Conglutinin): 0.65 mM

CC(=O)N[C@@H]1C(O)O[C@H](CO)[C@@H](O)[C@@H]1O (stereo partly drawn) [N-Acetyl-D-Mannosamine]
IC50 (Recombinant Conglutinin): 26.6 mM

Native bovine conglutinin (from UniProt P23805 21-371)
Titer of conglutination (lowest concentration of the proteins to cause agglutination) [1]: 0.16 µg/mL

native hMBP: native human mannan-binding protein (hMBP)
Present Method (Influenza A viruses [2]): +
Viral Growth Inhibition Activity (Minimum Protein Concentration) (Influenza A viruses [2]): 0.05 µg/mL
area of the infected focus / viral growth (Influenza A viruses [2]; 0, 0.25 and 0.5 μg/ml, three days, MDCK cells (FIG. 14)): reduced the area of the infected focus in a dose-dependent manner
Viral Growth Inhibition Activity (Influenza A viruses [2]; Table 6, class symbol): +
HA Binding (Hemagglutinin (HA)): −
HI Activity (Influenza A viruses [3]): +
Neutralization Activity (Minimum Protein Concentration) (Influenza A viruses [4]): > 5 µg/mL
Neutralization Activity (Influenza A viruses [4]; Table 4): −
Neutralization Activity (Influenza A viruses [4]; Table 5, class symbol): −

B1: Native Conglutinin: animal lectin of the calcium-dependent mammalian C-type lectin family existing in bovine serum (protein, UniProt P23805 21-371, looked up)
Conglutinin: AEMTTFSQKILANACTLVMCSPLESGLPGHDGQDGRECPHGEKGDPGSPGPAGRAGRPGWVGPIGPKGDNGFVGEPGPKGDTGPRGPPGMPGPAGREGPSGKQGSMGPPGTPGPKGETGPKGGVGAPGIQGFPGPSGLKGEKGAPGETGAPGRAGVTGPSGAIGPQGPSGARGPPGLKGDRGDPGETGAKGESGLAEVNALKQRVTILDGHLRRFQNAFSQYKKAVLFPDGQAVGEKIFKTAGAVKSYSDAEQLCREAKGQLASPRSSAENEAVTQMVRAQEKNAYLSMNDISTEGRFTYPTGEILVYSNWADGEPNNSDEGQPENCVEIFPDGKWNDVPCSKQLLVICEF
Present Method (Influenza A viruses [2]): −
Expression Concentration on Hemagglutination Inhibition (HI) (A/Adachi/1/57(H2N2)): >5 µg/mL
HA Binding (Hemagglutinin (HA)): +
Expression Concentration on Hemagglutination Inhibition (HI) (A/Suita/1/89(H1N1)): 0.08 µg/mL
Neutralization Titer (concentration to inhibit half (50%) of the infection) (A/Ibaraki/1/90(H3N2) [5]): 0.08 µg/mL
Titer of conglutination (lowest concentration of the proteins to cause agglutination) [6]: 0.16 µg/mL
HI Activity (Influenza A viruses [3]): +
Neutralization Activity (Influenza A viruses [4]; Table 4): +
Expression Concentration on Hemagglutination Inhibition (HI) (A/Ibaraki/1/90(H3N2) [7]): 0.08 µg/mL

B2: Bovine Conglutinin: bovine conglutinin of Table 5; native or recombinant not stated (protein, UniProt P23805 21-371, looked up)
Conglutinin: B1 Conglutinin
Neutralization Activity (Minimum Protein Concentration) (Influenza A viruses [4]): 0.09 µg/mL
Neutralization Activity (Influenza A viruses [4]; Table 5, class symbol): +

B3: Human Surfactant Protein (hSP-D) Native: native human surfactant protein D (protein, UniProt P35247 21-375, looked up)
Pulmonary …: AEMKTYSHRTMPSACTLVMCSSVESGLPGRDGRDGREGPRGEKGDPGLPGAAGQAGMPGQAGPVGPKGDNGSVGEPGPKGDTGPSGPPGPPGVPGPAGREGPLGKQGNIGPQGKPGPKGEAGPKGEVGAPGMQGSAGARGLAGPKGERGVPGERGVPGNTGAAGSAGAMGPQGSPGARGPPGLKGDKGIPGDKGAKGESGLPDVASLRQQVEALQGQVQHLQAAFSQYKKVELFPNGQSVGEKIFKTAGFVKPFTEAQLLCTQAGGQLASPRSAAENAALQQLVVAKNEAAFLSMTDSKTEGKFTYPTGESLVYSNWAPGEPNDDGGSEDCVEIFTNGKWNDRACGEKRLVVCEF
Present Method (Influenza A viruses [2]): −
HA Binding (Hemagglutinin (HA)): +
HI Activity (Influenza A viruses [3]): +
Neutralization Activity (Influenza A viruses [4]; Table 4): +

B4: Human Surfactant Protein (hSP-D) Recombinant: recombinant human surfactant protein D (protein, UniProt P35247 21-375, looked up)
Pulmonary …: B3 Pulmonary …
Present Method (Influenza A viruses [2]): −
HI Activity (Influenza A viruses [3]): −
Neutralization Activity (Influenza A viruses [4]; Table 4): −
